Reference: patent US8524668

Target: TLR2/TLR6 heterodimer
Assay: cell-based or functional assay

Substance	NF-κB activation
CBLB617 (peptide)	100
CBLB613 (peptide)	200
